Literature values in paper PMC7785802, “Therapeutic Efficacy of a Trichinella Spiralis Paramyosin-Derived Peptide Modified With a Membrane-Targeting Signal in Mice With Antigen-Induced Arthritis” (Frontiers in Microbiology, 2020).
Like-named read-outs stand apart in the source and are kept apart here.

System: antigen-induced arthritis (AIA)
Conditions: intraarticular injection prior to disease onset or at disease flares, animal models, Williams et al., 2004, Durigutto et al., 2013
Description: As MAC is a therapeutic target in RA, complement inhibitors have shown potential for preventing and treating arthritis in animal models (Goodfellow et al., [2000]; Durigutto et al., [2013]). Moreover, local or targeted inhibition might be an effective way to circumvent the adverse effects of systemic complement inhibition. […] More precisely, intraarticular injection of membrane-targeted CD59 or Fc fusio ... || RA is an autoimmune disease that has been confirmed to involve inappropriate complement activation in the joint cavity, making the delivery of anti-complement drugs into the joint cavity an ideal therapeutic strategy to relieve RA progression (Dijkstra et al., [2019]). […] Murine AIA, a well-recognized acute complement-dependent arthritis, imitates the pathology of RA (van den Berg et al., [2007]). As complement activation is involved in the process of AIA, this model has been utilized in many studies to assess the therapeutic efficacy of complement inhibitors that might affect various stages of complement activation. In animal models, intraarticular injection of complement inhibitors (including sCR1, CD59, and anti-C5 neutralizing recombinant mini-antibody) prior to ...

B1: CD59: a heavily glycosylated protein of 20 kDa that can specifically inhibit MAC formation (protein, UniProt P13987 26-102, looked up)
CD59 glycoprotein: LQCYNCPNPTADCKTAVNCSSDFDACLITKAGLQVYNKCWKFEHCNFNDVTTRLRENELTYYCCKKDLCNFNEQLEN
effect on joint swelling and development of AIA (ref Goodfellow et al., 2000): alleviate joint swelling and the development of AIA
effect on joint swelling and development of AIA (ref Harris et al., 2002): alleviate joint swelling and the development of AIA
